The source of these data is patent US20220204609A1.

The target of assay [1] is Claudin18.2 on cells (human) (UniProt P56856). Put plainly: flow cytometry on 293T-Claudin18.2 cells, antibody at 0.375 µg/mL.
In assay [2] the target is Claudin18.1 on cells (human) (UniProt P56856). Put plainly: flow cytometry on 293T-Claudin18.1 cells, antibody at 1.5 µg/mL. On the technique in general: A flow cytometer gives signals particle by particle.
For assay [3], the target named is Claudin18.2 on cells (human) (UniProt P56856). Kind of assay: flow cytometry on 293T-Claudin18.2 cells, antibody at 1.5 µg/mL.
Assay [4] shares this target. Put plainly: flow cytometry on NUGC4 cells, antibody at 1.5 µg/mL.
The target in assay [5] is Claudin18.2 protein (Genscript Biotech) (UniProt P56856). Put plainly: ELISA, plate coated with Claudin18.2 antigen at 0.2 µg/mL, antibody at 1 µg/mL.
Assay [6] addresses Claudin18.2 on cells (human) (UniProt P56856). Put plainly: cell-based or functional assay.
Assay [7] has the same target. Kind of assay: flow cytometry on 293T-Claudin18.2 cells, antibody at 0.75 µg/mL.
The target is the same in assay [8]. Kind of assay: flow cytometry on NUGC4 cells, antibody at 3 µg/mL.
For assay [9], the target named is Claudin18.2 protein (Genscript Biotech) (UniProt P56856). Put plainly: ELISA, plate coated with Claudin18.2 antigen at 0.05 µg/mL, antibody at 1 µg/mL.
Assay [10] deals with Claudin18.1 on cells (human) (UniProt P56856). Kind of assay: flow cytometry on 293T-Claudin18.1 cells, antibody at 0.375 µg/mL.
Assay [11] concerns the target Claudin18.2 protein (Genscript Biotech) (UniProt P56856). Put plainly: ELISA, plate coated with Claudin18.2 antigen at 0.0125 µg/mL, antibody at 1 µg/mL.
In assay [12] the target is Claudin18.1 on cells (human) (UniProt P56856). Kind of assay: flow cytometry on 293T-Claudin18.1 cells, antibody at 0.75 µg/mL.
Assay [13] addresses Claudin18.2 on cells (human) (UniProt P56856). Put plainly: flow cytometry on NUGC4 cells, antibody at 0.75 µg/mL.
Assay [14] concerns the target Claudin18.1 on cells (human) (UniProt P56856). Put plainly: flow cytometry on 293T-Claudin18.1 cells, antibody at 3 µg/mL.
Assay [15] addresses Claudin18.2 on cells (human) (UniProt P56856). Kind of assay: flow cytometry on 293T-Claudin18.2 cells, antibody at 3 µg/mL.

B1: CLDMix-CA818-IgG1 (antibody, V domains shown)
VH: GAATAVGRRTVEASETLSLTCAVYGGSFSGYYWSWIRQPPGKGLEWIGEINHSGSTNYNPSLKSRVTISVDTSKNQFSLKLSSVTAADTAVYYCARGPYDILTGYYPYWYFDLWGRGTLVTVSS
VL: DIVMTQSPSTLSASVGDRVTITCRASQGIRNDLGWYQQKPGKAPKLLIYDASSLQSGVPSRFSGSGYGTDFTLTISSLQPEDFATYYCLQDYNYPWTFGQGTKLEIKR
For the molecule B1, the mean fluorescence intensity in [1] turned out to be 9360; in assay [2], 17900; in [3], 34200; in [4] it was 20400; in [7], 17300; in assay [8], 42600. Further, the mean fluorescence intensity in assay [10] amounted to 7960; in assay [12] it was 15200; in assay [13] it was 15000; in assay [14], 34400; in assay [15] it was 33300. Further, the OD450 in [5] was found to be 3.19; in assay [9] it was 1.28; in [11], 0.492. This molecule also registered an ADCC inhibition rate, %, antibody 0.5 µg/mL, 293T-Claudin18.2 target cells, PBMC effectors, LDH in assay [6] of 15%. Further, the ADCC inhibition rate, %, antibody 5 µg/mL, 293T-Claudin18.2 target cells, PBMC effectors, LDH in assay [6] was determined as 25%. For the same molecule, the ADCC inhibition rate, %, antibody 50 µg/mL, 293T-Claudin18.2 target cells, PBMC effectors, LDH in assay [6] turned out to be 45%.

B2: CLDQ1-CA841-IgG1 (antibody, V domains shown)
VH: QVQLVQSGAEVKKPGSSVKVSCKASGGTFSSYAISWVRQAPGQGLEWMGRIIPILGIANYAQKFQGRVTVTADKSTSTAYMELSSLRSEDTAVYYCARERDNWDPYYYYYGMDVWGQGTTVTVSS
VL: DIQMTQSPSTLSASVGDRVTITCRASQSINSWLAWYQQKPGKAPKLLIYKASSLESGVPSRFSGSGSGTEFTLTISSLQPDDFATYYCQQYNSFPLTFGGGTKVEIKR
As for B2, the OD450 in assay [5] worked out at 2.38; in assay [9], 0.484; in assay [11], 0.165.
